Reference: the Human Domainome abundance scans (Beltran et al. 2025)
± gives the uncertainty stated by the source.

Test: abundance fitness (aPCA) (normalised: wild type 0, dead -1); higher = more abundant; growth selection in yeast, the domain comes from the species named
Details: Homo sapiens

Substance	abundance fitness
NEDD4-like E3 ubiquitin-protein ligase WWP2 G458L, O00308	-0.283 ± 0.041
NEDD4-like E3 ubiquitin-protein ligase WWP2 G458M, O00308	-0.148 ± 0.041
NEDD4-like E3 ubiquitin-protein ligase WWP2 G458N, O00308	-0.308 ± 0.093
NEDD4-like E3 ubiquitin-protein ligase WWP2 G458P, O00308	-1.03 ± 0.064
NEDD4-like E3 ubiquitin-protein ligase WWP2 G458Q, O00308	-0.244 ± 0.064
NEDD4-like E3 ubiquitin-protein ligase WWP2 G458R, O00308	-0.139 ± 0.046
NEDD4-like E3 ubiquitin-protein ligase WWP2 G458S, O00308	-0.176 ± 0.055
NEDD4-like E3 ubiquitin-protein ligase WWP2 G458T, O00308	-0.505 ± 0.058
NEDD4-like E3 ubiquitin-protein ligase WWP2 G458V, O00308	-0.992 ± 0.065
NEDD4-like E3 ubiquitin-protein ligase WWP2 G458W, O00308	-0.461 ± 0.045
NEDD4-like E3 ubiquitin-protein ligase WWP2 G458Y, O00308	-0.262 ± 0.064
NEDD4-like E3 ubiquitin-protein ligase WWP2 G478A, O00308	0.035 ± 0.058
NEDD4-like E3 ubiquitin-protein ligase WWP2 G478C, O00308	-0.001 ± 0.039
NEDD4-like E3 ubiquitin-protein ligase WWP2 G478D, O00308	-0.036 ± 0.05
NEDD4-like E3 ubiquitin-protein ligase WWP2 G478E, O00308	-0.036 ± 0.063
NEDD4-like E3 ubiquitin-protein ligase WWP2 G478F, O00308	-0.014 ± 0.046
NEDD4-like E3 ubiquitin-protein ligase WWP2 G478H, O00308	-0.045 ± 0.069
NEDD4-like E3 ubiquitin-protein ligase WWP2 G478I, O00308	0.136 ± 0.073
NEDD4-like E3 ubiquitin-protein ligase WWP2 G478K, O00308	0.061 ± 0.067
NEDD4-like E3 ubiquitin-protein ligase WWP2 G478L, O00308	0.012 ± 0.035
NEDD4-like E3 ubiquitin-protein ligase WWP2 G478M, O00308	-0.08 ± 0.057
NEDD4-like E3 ubiquitin-protein ligase WWP2 G478N, O00308	-0.136 ± 0.068

Substance	abundance fitness
NEDD4-like E3 ubiquitin-protein ligase WWP2 G478P, O00308	-0.005 ± 0.052
NEDD4-like E3 ubiquitin-protein ligase WWP2 G478Q, O00308	0.038 ± 0.048
NEDD4-like E3 ubiquitin-protein ligase WWP2 G478R, O00308	0.032 ± 0.047
NEDD4-like E3 ubiquitin-protein ligase WWP2 G478S, O00308	0.019 ± 0.033
NEDD4-like E3 ubiquitin-protein ligase WWP2 G478T, O00308	0.077 ± 0.059
NEDD4-like E3 ubiquitin-protein ligase WWP2 G478V, O00308	-0.058 ± 0.047
NEDD4-like E3 ubiquitin-protein ligase WWP2 G478W, O00308	-0.017 ± 0.032
NEDD4-like E3 ubiquitin-protein ligase WWP2 G478Y, O00308	-0.084 ± 0.068
NEDD4-like E3 ubiquitin-protein ligase WWP2 G482A, O00308	-0.033 ± 0.042
NEDD4-like E3 ubiquitin-protein ligase WWP2 G482C, O00308	-0.15 ± 0.062
NEDD4-like E3 ubiquitin-protein ligase WWP2 G482E, O00308	-0.064 ± 0.049
NEDD4-like E3 ubiquitin-protein ligase WWP2 G482F, O00308	-0.124 ± 0.06
NEDD4-like E3 ubiquitin-protein ligase WWP2 G482H, O00308	-0.019 ± 0.076
NEDD4-like E3 ubiquitin-protein ligase WWP2 G482I, O00308	-0.077 ± 0.046
NEDD4-like E3 ubiquitin-protein ligase WWP2 G482K, O00308	-0.037 ± 0.068
NEDD4-like E3 ubiquitin-protein ligase WWP2 G482L, O00308	-0.086 ± 0.044
NEDD4-like E3 ubiquitin-protein ligase WWP2 G482M, O00308	-0.121 ± 0.061
NEDD4-like E3 ubiquitin-protein ligase WWP2 G482N, O00308	-0.007 ± 0.039
NEDD4-like E3 ubiquitin-protein ligase WWP2 G482P, O00308	-0.032 ± 0.07
NEDD4-like E3 ubiquitin-protein ligase WWP2 G482Q, O00308	-0.009 ± 0.057
NEDD4-like E3 ubiquitin-protein ligase WWP2 G482R, O00308	-0.097 ± 0.043
NEDD4-like E3 ubiquitin-protein ligase WWP2 G482S, O00308	-0.025 ± 0.033

Substance	abundance fitness
NEDD4-like E3 ubiquitin-protein ligase WWP2 G482T, O00308	-0.019 ± 0.06
NEDD4-like E3 ubiquitin-protein ligase WWP2 G482V, O00308	-0.108 ± 0.043
NEDD4-like E3 ubiquitin-protein ligase WWP2 G482W, O00308	-0.151 ± 0.05
NEDD4-like E3 ubiquitin-protein ligase WWP2 G482Y, O00308	-0.089 ± 0.045
NEDD4-like E3 ubiquitin-protein ligase WWP2 G486A, O00308	0.028 ± 0.038
NEDD4-like E3 ubiquitin-protein ligase WWP2 G486C, O00308	-0.023 ± 0.056
NEDD4-like E3 ubiquitin-protein ligase WWP2 G486E, O00308	0.044 ± 0.042
NEDD4-like E3 ubiquitin-protein ligase WWP2 G486F, O00308	-0.205 ± 0.073
NEDD4-like E3 ubiquitin-protein ligase WWP2 G486H, O00308	-0.135 ± 0.062
NEDD4-like E3 ubiquitin-protein ligase WWP2 G486I, O00308	-0.028 ± 0.072
NEDD4-like E3 ubiquitin-protein ligase WWP2 G486L, O00308	-0.066 ± 0.042
NEDD4-like E3 ubiquitin-protein ligase WWP2 G486M, O00308	-0.01 ± 0.036
NEDD4-like E3 ubiquitin-protein ligase WWP2 G486N, O00308	-0.177 ± 0.12
NEDD4-like E3 ubiquitin-protein ligase WWP2 G486P, O00308	0.013 ± 0.049
NEDD4-like E3 ubiquitin-protein ligase WWP2 G486Q, O00308	-0.023 ± 0.054
NEDD4-like E3 ubiquitin-protein ligase WWP2 G486R, O00308	-0.028 ± 0.037
NEDD4-like E3 ubiquitin-protein ligase WWP2 G486S, O00308	-0.041 ± 0.049
NEDD4-like E3 ubiquitin-protein ligase WWP2 G486V, O00308	-0.01 ± 0.043
NEDD4-like E3 ubiquitin-protein ligase WWP2 G486W, O00308	-0.187 ± 0.049
NEDD4-like E3 ubiquitin-protein ligase WWP2 G486Y, O00308	-0.239 ± 0.069
NEDD4-like E3 ubiquitin-protein ligase WWP2 G489A, O00308	-0.007 ± 0.041
NEDD4-like E3 ubiquitin-protein ligase WWP2 G489C, O00308	-0.066 ± 0.031

Substance	abundance fitness
NEDD4-like E3 ubiquitin-protein ligase WWP2 G489D, O00308	-0.02 ± 0.053
NEDD4-like E3 ubiquitin-protein ligase WWP2 G489E, O00308	0.04 ± 0.049
NEDD4-like E3 ubiquitin-protein ligase WWP2 G489F, O00308	-0.028 ± 0.078
NEDD4-like E3 ubiquitin-protein ligase WWP2 G489H, O00308	-0.155 ± 0.078
NEDD4-like E3 ubiquitin-protein ligase WWP2 G489I, O00308	-0.035 ± 0.078
NEDD4-like E3 ubiquitin-protein ligase WWP2 G489K, O00308	0.001 ± 0.069
NEDD4-like E3 ubiquitin-protein ligase WWP2 G489L, O00308	-0.039 ± 0.055
NEDD4-like E3 ubiquitin-protein ligase WWP2 G489M, O00308	-0.048 ± 0.07
NEDD4-like E3 ubiquitin-protein ligase WWP2 G489N, O00308	-0.008 ± 0.033
NEDD4-like E3 ubiquitin-protein ligase WWP2 G489P, O00308	-0.049 ± 0.041
NEDD4-like E3 ubiquitin-protein ligase WWP2 G489Q, O00308	-0.157 ± 0.077
NEDD4-like E3 ubiquitin-protein ligase WWP2 G489R, O00308	-0.035 ± 0.036
NEDD4-like E3 ubiquitin-protein ligase WWP2 G489S, O00308	0.039 ± 0.05
NEDD4-like E3 ubiquitin-protein ligase WWP2 G489T, O00308	0.002 ± 0.066
NEDD4-like E3 ubiquitin-protein ligase WWP2 G489V, O00308	-0.031 ± 0.048
NEDD4-like E3 ubiquitin-protein ligase WWP2 G489W, O00308	-0.163 ± 0.057
NEDD4-like E3 ubiquitin-protein ligase WWP2 G489Y, O00308	-0.334 ± 0.087
NEDD4-like E3 ubiquitin-protein ligase WWP2 H465A, O00308	-0.378 ± 0.05
NEDD4-like E3 ubiquitin-protein ligase WWP2 H465C, O00308	-0.411 ± 0.067
NEDD4-like E3 ubiquitin-protein ligase WWP2 H465D, O00308	-0.461 ± 0.06
NEDD4-like E3 ubiquitin-protein ligase WWP2 H465E, O00308	-0.396 ± 0.062
NEDD4-like E3 ubiquitin-protein ligase WWP2 H465I, O00308	-0.207 ± 0.08
